Laboratory results published in publication PMC11927390.

Tests used:
[1] = target: FcγRIIIa on the effector cells of the Promega ADCC Reporter Bioassay (human) (UniProt P08637)
[2] = target: recombinant soluble ULBP6-02 (human) (UniProt Q5VY80)
[3] = target: human FcγRIIa-R167, biotinylated (human) (UniProt P12318); test: SPR; Biacore, 37°C; biotinylated FcγRs captured on Series S Sensor Chip CAP; threefold serial dilutions of the anti-ULBP6/2/5 antibodies injected at 30 μL/minute; HBS-P
[4] = target: human FcγRIIIa-V176, biotinylated (human) (UniProt P08637); test: as above
Sequence of human FcγRIIIa-V176, biotinylated (human) (P08637 17-254 F176V): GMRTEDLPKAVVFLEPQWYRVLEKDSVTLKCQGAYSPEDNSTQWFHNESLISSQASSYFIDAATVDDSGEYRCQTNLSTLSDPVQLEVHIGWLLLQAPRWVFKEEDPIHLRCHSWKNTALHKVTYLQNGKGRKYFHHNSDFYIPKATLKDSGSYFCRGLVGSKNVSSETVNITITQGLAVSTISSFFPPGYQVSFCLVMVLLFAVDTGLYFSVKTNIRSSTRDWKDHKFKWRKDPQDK

[5] = target: human FcγRI, biotinylated (human) (UniProt P12314); test: as above
Sequence of human FcγRI, biotinylated (human) (P12314 16-374): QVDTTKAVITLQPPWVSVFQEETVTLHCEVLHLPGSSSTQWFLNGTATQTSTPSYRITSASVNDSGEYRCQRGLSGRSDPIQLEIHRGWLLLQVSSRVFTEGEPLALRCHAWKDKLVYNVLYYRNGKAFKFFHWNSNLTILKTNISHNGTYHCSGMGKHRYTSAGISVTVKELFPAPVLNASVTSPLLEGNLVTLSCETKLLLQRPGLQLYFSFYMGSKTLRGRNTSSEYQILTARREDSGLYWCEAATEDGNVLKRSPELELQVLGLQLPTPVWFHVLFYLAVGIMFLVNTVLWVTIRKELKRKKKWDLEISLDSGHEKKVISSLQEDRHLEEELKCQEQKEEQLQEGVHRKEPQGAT

[6] = target: human FcγRIIa-H167, biotinylated (human) (UniProt P12318); test: as above
Sequence of human FcγRIIa-H167, biotinylated (human) (P12318 34-317): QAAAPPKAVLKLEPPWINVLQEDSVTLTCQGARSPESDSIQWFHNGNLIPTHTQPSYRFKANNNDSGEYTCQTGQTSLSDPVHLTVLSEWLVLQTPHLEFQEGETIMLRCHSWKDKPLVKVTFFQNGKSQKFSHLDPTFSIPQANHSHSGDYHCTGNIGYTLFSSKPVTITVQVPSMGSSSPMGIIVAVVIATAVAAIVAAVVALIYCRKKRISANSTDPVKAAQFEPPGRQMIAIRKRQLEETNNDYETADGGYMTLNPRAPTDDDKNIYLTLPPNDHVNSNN

[7] = target: human FcγRIIIa-F176, biotinylated (human) (UniProt P08637); test: as above
Sequence of human FcγRIIIa-F176, biotinylated (human) (P08637 17-254): as the sequence (P08637 17-254 F176V) above, with V160F counted along it

[8] = target: human FcγRIIb, biotinylated (human) (UniProt P31994); test: as above
Sequence of human FcγRIIb, biotinylated (human) (P31994 43-310): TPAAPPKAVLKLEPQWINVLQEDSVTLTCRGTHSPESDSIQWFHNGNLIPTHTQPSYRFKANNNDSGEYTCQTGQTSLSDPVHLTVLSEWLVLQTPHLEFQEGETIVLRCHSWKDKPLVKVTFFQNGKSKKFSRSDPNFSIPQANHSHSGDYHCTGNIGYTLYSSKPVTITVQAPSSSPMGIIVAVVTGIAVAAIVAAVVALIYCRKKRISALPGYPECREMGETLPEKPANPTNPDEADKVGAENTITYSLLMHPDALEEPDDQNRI

[9] = target: recombinant soluble ULBP6-02 (human) (UniProt Q5VY80); remark: listed apart in the source
[10] = target: murine NKG2D Fc (murine) (UniProt O54709); test: SPR; Biacore 8K or 8K+, 37°C; NKG2D Fc captured (Protein A chip as told for human NKG2D-Fc), ULBP6 as analyte in HBS-P (0.01 mol/L HEPES pH 7.4, 0.15 mol/L NaCl, 0.005% P20); kinetic or steady-state fit not given
Sequence of murine NKG2D Fc (murine) (O54709 90-232): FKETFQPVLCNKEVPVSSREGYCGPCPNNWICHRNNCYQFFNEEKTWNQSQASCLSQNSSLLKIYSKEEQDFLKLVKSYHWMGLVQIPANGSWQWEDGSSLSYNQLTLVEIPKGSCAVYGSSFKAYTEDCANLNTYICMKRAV

[11] = target: human NKG2D Fc (human) (UniProt P26718); test: as above
Sequence of human NKG2D Fc (human) (P26718 73-216): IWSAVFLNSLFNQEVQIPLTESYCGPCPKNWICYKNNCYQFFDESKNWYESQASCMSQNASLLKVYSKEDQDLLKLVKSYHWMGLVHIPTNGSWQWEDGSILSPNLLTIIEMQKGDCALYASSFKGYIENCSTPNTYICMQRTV

Sequence of human FcγRIIa-R167, biotinylated (human) (P12318 34-317 H167R): as the sequence (P12318 34-317) above, with H134R counted along it
Sequence of FcγRIIIa on the effector cells of the Promega ADCC Reporter Bioassay (human) (P08637 17-254): as the sequence (P08637 17-254 F176V) above, with V160F counted along it

For “23ME-01473, humanized Fc effector-enhanced (afucosylated) anti-ULBP6/2/5 antibody”, the EC50 of FcγRIIIa activation (RLU), Promega ADCC reporter assay with luciferase effector cells and COV644 target cells, 0.0001 to 10 nmol/L antibody [1] was 53.2 pM, the IC50 (so in the source) of IFNγ secretion by IL-2/IL-15-primed PBMCs cocultured with COV644 cells and 50 nmol/L sULBP6-02, 0.05-200 nmol/L 23ME-01473, donor d1213; pair blocked: sULBP6-02 and NKG2D [2] was 21.5 nM and the IC50 (so in the source) of IFNγ secretion by IL-2/IL-15-primed PBMCs cocultured with COV644 cells and 50 nmol/L sULBP6-02, 0.05-200 nmol/L 23ME-01473, donor d1802; pair blocked: sULBP6-02 and NKG2D [2] was 25.5 nM. It also gave an IC50 (so in the source) of IFNγ secretion by IL-2/IL-15-primed PBMCs cocultured with COV644 cells and 50 nmol/L sULBP6-02, 0.05-200 nmol/L 23ME-01473, donor d3761; pair blocked: sULBP6-02 and NKG2D [2] of 13.6 nM, an IC50 (so in the source) of IFNγ secretion by IL-2/IL-15-primed PBMCs cocultured with COV644 cells and 50 nmol/L sULBP6-02, 0.05-200 nmol/L 23ME-01473, donor d33936; pair blocked: sULBP6-02 and NKG2D [2] of 25.6 nM and a Kd [3] of 406 nM. For the same substance, the Kd [4] was 6.74 nM, the Kd [5] was 0.92 nM and the Kd [6] was 270 nM. The Kd [7] was 25.5 nM and the Kd [8] was 2230 nM.

In the case of “Fc-Att-anti-ULBP6/2/5, effector-attenuated (N297G) version of 23ME-01473 (antibody)”, the IC50 (so in the source) of the rescue of IFNγ production by PBMCs cocultured with COV644 cells in the presence of sULBP6, donor d1212; pair blocked: sULBP6-02 and NKG2D [9] is reported as 26 nM, the IC50 (so in the source) of the rescue of IFNγ production by PBMCs cocultured with COV644 cells in the presence of sULBP6, donor d1939; pair blocked: sULBP6-02 and NKG2D [9] is reported as 10.6 nM and the IC50 (so in the source) of the rescue of IFNγ production by PBMCs cocultured with COV644 cells in the presence of sULBP6, donor d33936; pair blocked: sULBP6-02 and NKG2D [9] is reported as 16.5 nM.

For “human ULBP6 (analyte of Supplementary Table S6) (from UniProt Q5VY80 26-218) (ligand)”, the Kd [10] was 0.64 nM and the Kd [11] was 0.8 nM.
